From patent US20230287046A1, “MOLECULES TARGETING PROTEINS” (AELIN THERAPEUTICS, priority 2020, published 2023)
Where no end group is shown, it is not given here.

What was measured:
[1] = target: T1, G12V mutant KRAS (Homo sapiens, UniProt P01116, G12V); assay: In vitro translation assay with streptavidin pull-down, KRAS G12V; format: binding; details: 10 μM biotinylated pept-in, Western blot
T1 construct: made in house; host or cells: cell-free: PURExpress In Vitro Protein Synthesis Kit (New England Biolabs)
Description: (§1) In vitro translation assays were performed using the PURExpress® In Vitro Protein Synthesis Kit (New England Biolabs) according to the manufacturer's instructions. Briefly, linear DNA fragments containing T7 promotor and terminator sequences flanking the KRAS coding sequence were generated using PCR and purified using the MinElute PCR Purification Kit (Qiagen). 250 ng of linear DNA was subsequently used for the in vitro translation reaction, which was performed for 2 hours at 37° C. with shaking (1000 rpm). Indicated biotinylated pept-ins were mixed in the translation reactions from a 5 mM stock solution in 6M Urea to a final concentration of 10 μM. Upon completion of the translation reaction, biotinylated pept-ins were captured from the reaction mix using Streptavidin coated beads (Pierce) during 90 min at room temperature. Beads were next washed with TBS containing 0.1% Tween 20 and bound proteins were finally boiled off in 1×SDS loading dye (Bio-Rad) in TBS buffer. Proteins were resolved using Any kD 15-well Mini-PROTEAN gels (Bio-Rad) during SDS-PAGE and probed for KRAS after Western blotting using a mouse monoclonal KRAS-specific antibody (SC-30, Santa Cruz Biotechnology), which was detected with an HRP-coupled anti-mouse secondary antibody using chemiluminescence on a Bio-Rad Chemidoc MP imaging instrument.
To mimic this in vitro, we devised an in vitro translation setup producing either wild-type or mutant KRAS (G12V, G12C, G12D or G13D) in the presence of biotinylated RAS-targeting pept-ins. This allowed us to perform a streptavidin pull-down to capture the biotinylated pept-ins from the translation reaction and perform SDS-PAGE and Western blotting to probe the pulled-down fraction for the presence of KRAS. The biotinylated version of pept-in 04-004-N001, i.e. 04-004-N011, which harbours an APR window sequence derived from a wild-type APR, is predicted to target all RAS proteins independently from their mutation status.

[2] = target: T2, G12C mutant KRAS (Homo sapiens, UniProt P01116, G12C); assay: In vitro translation assay with streptavidin pull-down, KRAS G12C; format: binding; details: 10 μM biotinylated pept-in, Western blot
T2 construct: made in house; host or cells: cell-free: PURExpress In Vitro Protein Synthesis Kit (New England Biolabs)
Description: as §1, with “instrument. […]” for “instrument.”

[3] = target: T3, KRAS G12D mutant (Homo sapiens, UniProt P01116, G12D); assay: In vitro translation assay with streptavidin pull-down, KRAS G12D; format: binding; details: 10 μM biotinylated pept-in, Western blot
T3 construct: made in house; host or cells: cell-free: PURExpress In Vitro Protein Synthesis Kit (New England Biolabs)
Description: as §1, with “instrument. […]” for “instrument.”

[4] = target: T4, KRAS G13D mutant (Homo sapiens, UniProt P01116, G13D); assay: In vitro translation assay with streptavidin pull-down, KRAS G13D; format: binding; details: 10 μM biotinylated pept-in, Western blot
T4 construct: made in house; host or cells: cell-free: PURExpress In Vitro Protein Synthesis Kit (New England Biolabs)
Description: as §1, with “instrument. […]” for “instrument.”

[5] = target: T5, mCherry-tagged KRAS G12V in HeLa cells (Homo sapiens, UniProt P01116, G12V); assay: Cellular fluorescent imaging in HeLa cells overexpressing mCherry-tagged KRAS G12V; format: cell-based; details: 75 min after treatment
T5 construct: expressed in transfected cells; host or cells: HeLa cells transduced with lentiviral particles
Description: Fluorescent cellular imaging was performed using HeLa cells that were transduced with lentiviral particles carrying a construct expressing KRAS G12V labeled N-terminally with mCherry. Cells were seeded in a black Gclear® Cellstar® F-bottom 96-well plates (Greiner) in 100 μL full growth medium. […] Next, cells were fixed, washed and counterstained with the nuclear dye NucBlue™ (containing Hoechst 33342). Images were captured on a Leica confocal microscope.
To complement the co-immunoprecipitation approach, we also used a cellular imaging approach to show target engagement. To this end, we generated a HeLa cell line overexpressing mCherry-tagged KRAS G12V and FITC-labelled versions of the RAS-targeting pept-ins.

[6] = system: SW620 human KRAS G12V colorectal cancer xenograft; assay: In vivo SW620 xenograft model; design: species or system mouse; details: three times per week
Description: Female NCr nu/nu mice (8 to 12 weeks) were inoculated with 1×10^6 SW620 tumor cells in 50% Matrigel subcutaneously in the hind flank. The cell Injection Volume was 0.1 mL/mouse. When tumors reached an average size of 100-150 mm^3 a pair match was performed, and treatment started. Group sizes were N=6 for the non-treated group, N=5 for the vehicle groups and N=8 for the pept-in and positive control groups. Tumor growth was monitored by caliper measurement twice per week. Model response was monitored by Irinotecan dosed once per week at 100 mg/kg intraperitoneally for 3 weeks.
To assess whether the RAS-targeting pept-ins are able to attenuate growth of KRAS G12V-driven tumors in vivo, a subcutaneous xenograft model of human KRAS G12V colorectal cancer (SW620) was used. Once the tumors reached 100-150 mm^3 in size, pept-ins were administered directly into the tumor mass by intratumoral injection three times per week during two weeks at two different doses (20 μg and 200 μg).

[7] = system: NCI-H441 spheroid cultures; assay: Single-dose viability screen on NCI-H441 suspension spheroid cultures (3D, CellTiter Glo 3D); format: cell-based, human; details: NCI-H441 spheroids, single dose 25 μM, 5 days
Description: For the single-dose viability screen on spheroid cultures, 1000 cells were seeded per well in black Ultra-Low Attachment (ULA) round-bottom 96-well plates (Corning) in 75 μL full growth medium. The day after seeding, spheroids were treated by addition of 50 μl of full growth medium containing the indicated test compounds so that the final concentration after adding was 25 μM. Technical duplicates were included for all experimental pept-in conditions 5 days after treatment viability was assessed using the CellTiter Glo 3D reagent (Promega) according to the manufacturer's instructions, with the following adaptation: 80 μL of reagent was added per well. Readout was performed on a Clariostar plate reader (BMG). […]
As previous reports have shown that adherent growth of KRAS mutant cells lines might attenuate their sensitivity to KRAS inhibition or knockdown (Fujita-Sato et al. Cancer Res. 2015, vol. 75, 2851-62; Patricelli et al. Cancer Discov. 2016, vol. 6, 316-29; Vartanian et al. J Biol Chem. 2013, vol. 288, 2403-13), we complemented the screen on adherently growing NCI-H441 cells with a screen on suspension spheroid cultures of the same cell line. […] Viability of the spheroid cultures was determined after 5 days of exposure using the CellTiter Glo 3D reagent from Promega. […]

[8] = target: T6, KRAS of NCI-H441 lung adenocarcinoma cells (KRAS G12V mutant) (human, UniProt P01116 1-186); assay: cell-based or functional assay
[9] = target: T6, KRAS of NCI-H441 lung adenocarcinoma …; assay: cell-based or functional assay; remark: listed apart in the source

| Molecule | pull-down of KRAS G12V [1] | IC50 on viability of adherently growing NCI-H441 cells (CellTiter Glo, 3 days) [8] [µM] | Normalized viability NCI-H441 4 days of exposure to 25 µM (%) [9] [%] | further results |
| --- | --- | --- | --- | --- |
| 04-004-N011: biotinylated version of pept-in 04-004-N001 (KLSVFAIKGSKLSVFAIK; also: biotinylated version of 04-004-N001) | efficient pull-down |  |  | pull-down of KRAS G12C [2]: efficient pull-down; binding to KRAS G12D [3]: less efficient; binding to KRAS G13D [4]: less efficient |
| 04-006-N007: biotinylated version of a biologically active pept-in harbouring an APR window containing the G12V mutant site (04-006 series) (KVVVGAVKGSKVVVGAVK; also: biotinylated version) | notable pull-down was only observed for the G12V mutant KRAS |  |  |  |
| 04-015-N026: biotinylated version of a biologically active pept-in harbouring an APR window containing the G12V mutant site (04-015 series) (KVVVGAVGKGSKVVVGAVGK; also: biotinylated version) | notable pull-down |  |  | pull-down of KRAS G12C [2]: notable pull-down |
| 04-015-N032: RAS-targeting FITC-labelled version of pept-in 04-015-N001 (KVVVGAVGKGSKVVVGAVGK; also: FITC-labelled version of 04-015-N001) |  |  |  | association with mCherry-labelled KRAS [5]: associates with mCherry-labelled KRAS |
| 04-033-N003: biotinylated version of a biologically active pept-in harbouring an APR window containing the G12V mutant site (04-033 series) (KVVVGAVGVGKGSKVVVGAVGVGK; also: biotinylated version) | notable pull-down was only observed for the G12V mutant KRAS |  |  |  |
| CC(=O)N[C@@H](CCCCN)C(=O)N[C@H](C(=O)N[C@H](C(=O)N[C@H](C(=O)NCC(=O)N[C@@H](C)C(=O)N[C@H](C(=O)NCC(=O)N[C@@H](CCCCN)C(=O)NCC(=O)N[C@@H](CO)C(=O)N[C@@H](CCCCN)C(=O)N[C@H](C(=O)N[C@H](C(=O)N[C@H](C(=O)NCC(=O)N[C@@H](C)C(=O)N[C@H](C(=O)NCC(=O)N[C@@H](CCCCN)C(N)=O)C(C)C)C(C)C)C(C)C)C(C)C)C(C)C)C(C)C)C(C)C)C(C)C [04-015-N001] |  |  |  | reduction in average tumor volume at day 22 ([6]; 20 μg intratumoral): significant reduction in average tumor volume; reduction in average tumor volume at day 22 ([6]; 200 μg intratumoral): significant reduction in average tumor volume |
| Ac-KLSVFAIKGSKLSVFAIK-NH2 [04-004-N001] |  |  |  | reduction in average tumor volume at day 22 ([6]; 20 μg intratumoral): only significant for the 200 μg dosing group; reduction in average tumor volume at day 22 ([6]; 200 μg intratumoral): only significant for the 200 μg dosing group |
| Ac-KLVVVGAVKGSKLVVVGAVK-NH2 [04-014-N001] |  |  |  | activity in the spheroid setting [7]: did not display activity |
| Ac-KVVVGAVGKGSKVVVGAVGK-NH2 [04-015-N001] |  | ~10 | 23.3 |  |
| Ac-KVVVGAVKGSKVVVGAVK-NH2 [04-006-N001] |  | ~10 | 8.7 |  |
| Ac-KLSVFAIKGSKLSVFAIK-NH2 [04-004-N001] |  | ~10 | 6.1 |  |
| Ac-KVVVGAVGVGKGSKVVVGAVGVGK-NH2 [04-033-N001] |  | ~10 | 5.2 |  |
| Ac-KLVVVGAVKGSKLVVVGAVK-NH2 [04-014-N001] |  | ~10 | 9.1 |  |
